# Data: the RNAGym collection of RNA variant scans (doi:10.1073/pnas.2313332121)
# B1: TPR t1 (parent)
# chain: GACCAAUCUGCCCUCAGAGCUCGAGAACAUCUUCGGAUGCAGAGGAGGCAGGCUUCGGUGGCGCGAUAGCGCCAACGUCCUCAACCUCCAAUGCAUCCCACCACAUGAUGAUGCCUGAAGAGCCUUGGUUUUUUG
# Variants of: B1
# Experiment: polymerase ribozyme fitness, log enrichment relative to wild type (log ratio); higher = more active; in vitro selection for triplet polymerase activity
# Summary of the method: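 Mutant libraries of each subunit of a heterodimeric triplet polymerase ribozyme were built by PCR and transcribed. Each library went through one round of in vitro selection in triplicate: annealing with biotinylated primer, partner subunit and triplets, frozen incubation at −7 °C, gel excision of extended constructs, streptavidin-bead capture and RT-PCR. Input and output libraries were Illumina-sequenced; only genotypes with ≥10 input reads and ≥1 read per output were kept. Fitness is log2(genotype enrichment/wild-type enrichment), using inverse-variance-weighted replicate averages.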
row,Variant,polymerase ribozyme fitness (log ratio)
1,GACCAAUCUGCCCUCAGAGCUCGAGAACAUCUUCGGAUGCAGAGGAGGCAGGCUUCGGUGGCGCGAUAGCGCCAACGUCCUCAACCUCCCAUGCAUCUCACCACAUGAUGAUGCCUGAAGAGCCUUGGUUUUUUG [A90C C98U],-2.83
2,GACCAAUCUGCCCUCAGAGCUCGAGAACAUCUUCGGAUGCAGAGGAGGCAGGCUUCGGUGGCGCGAUAGCGCCAACGUCCUCAACCUCCCAUGCGUCCCACCACAUGAUGAUGCCUGAAGAGCCUUGGUUUUUUG [A90C A95G],-0.983
3,GACCAAUCUGCCCUCAGAGCUCGAGAACAUCUUCGGAUGCAGAGGAGGCAGGCUUCGGUGGCGCGAUAGCGCCAACGUCCUCAACCUCCCAUGCAUCCCACCACAUGAUGAUGCCUGAAGCGCCUUGGUUUUUUG [A90C A121C],0.757
4,GACCAAUCUGCCCUCAGAGCUCGAGAACAUCUUCGGAUGCAGAGGAGGCAGGCUUCGGUGGCGCGAUAGCGCCAACGUCCUCAACCUCCGAUGCAUCCCACAACAUGAUGAUGCCUGAAGAGCAUUGGUUUUUUG [A90G C102A C124A],0.51
5,GACCAAUCUGCCCUCAGAGCUCGAGAACAUCUUCGGAUGCAGAGGAGGCAGGCUUCGGUGGCGCGAUAGCGCCAACGUCCUCAACCUCCCAUGCAUCCCACCACAUGAUGAUGCCUGAAGAGCUUUGGUUUUUUG [A90C C124U],0.931
6,GACCAAUCUGCCCUCAGAGCUCGAGAACAUCUUCGGAUGCAGAGGAGGCAGGCUUCGGUGGCGCGAUAGCGCCAACGUCCUCAACCUCUAAUGCAUCCCACCACAUGAUGAUCCCUGAACAGCCUUGGUUUUUUG [C89U G113C G120C],-3.26
7,GACCAAUCUGCCCUCAGAGCUCGAGAACAUCUUCGGAUGCAGAGGAGGCAGGCUUCGGUGGCGCGAUAGCGCCAACGUCCUCAACCUCUAAUGCAUCCCACCACAUGAUUAUGCCUGAAGAGCCUUGGUUUUUUG [C89U G110U],-2.22
8,GACCAAUCUGCCCUCAGAGCUCGAGAACAUCUUCGGAUGCAGAGGAGGCAGGCUUCGGUGGCGCGAUAGCGCCAACGUCCUCAACCUCUAAUGCAUCCCACCACAUGAUCAUGCCUGAAGAGCCUUGGUUUUUUG [C89U G110C],-3.36
9,GACCAAUCUGCCCUCAGAGCUCGAGAACAUCUUCGGAUGCAGAGGAGGCAGGCUUCGGUGGCGCGAUAGCGCCAACGUCCUCAACCUCCCAUGCAUCCCACCACAUGAUGAUGCCUGAAGAGCCUUGGUUUUUUG [A90C],-1.08
10,GACCAAUCUGCCCUCAGAGCUCGAGAACAUCUUCGGAUGCAGAGGAGGCAGGCUUCGGUGGCGCGAUAGCGCCAACGUCCUCAACCUCCUAUGCAUCCCACCACAUGAUGAUGCCUGAAGAGCCUUGGUUUUUUG [A90U],-1.2
11,GACCAAUCUGCCCUCAGAGCUCGAGAACAUCUUCGGAUGCAGAGGAGGCAGGCUUCGGUGGCGCGAUAGCGCCAACGUCCUCAACCUCCGAUGCAUCCCACCACAUGAUGAUGCCUGAAGAGCCUUGGUUUUUUG [A90G],0.347
12,GACCAAUCUGCCCUCAGAGCUCGAGAACAUCUUCGGAUGCAGAGGAGGCAGGCUUCGGUGGCGCGAUAGCGCCAACGUCCUCAACCUCCGAUGCAUCCCACCACAUGAUGAGGCCCGAAGAGCCUUGGUUUUUUG [A90G U112G U116C],-0.0889
13,GACCAAUCUGCCCUCAGAGCUCGAGAACAUCUUCGGAUGCAGAGGAGGCAGGCUUCGGUGGCGCGAUAGCGCCAACGUCCUCAACCUCCGAUGCAUUCCACCACAUGAUGAUGCCUGAAGAGCCUUGGUUUUUUG [A90G C97U],0.255
14,GACCAAUCUGCCCUCAGAGCUCGAGAACAUCUUCGGAUGCAGAGGAGGCAGGCUUCGGUGGCGCGAUAGCGCCAACGUCCUCAACCUCUAAUGCAACCCACCACAUGAUGAUGCCUGAAGAGCCUUGGUUUUUUG [C89U U96A],-1.3
15,GACCAAUCUGCCCUCAGAGCUCGAGAACAUCUUCGGAUGCAGAGGAGGCAGGCUUCGGUGGCGCGAUAGCGCCAACGUCCUCAACCUCUAAUGCACCCCACCACAUGAUGAUGCCUGAAGAGCCUUGGUUUUUUG [C89U U96C],-0.473
16,GACCAAUCUGCCCUCAGAGCUCGAGAACAUCUUCGGAUGCAGAGGAGGCAGGCUUCGGUGGCGCGAUAGCGCCAACGUCCUCAACCUCUAAUGCAUCCCACCACAUGAUGAUGCCUGAAUAGCCAUGGUUUUUUG [C89U G120U U125A],-0.262
17,GACCAAUCUGCCCUCAGAGCUCGAGAACAUCUUCGGAUGCAGAGGAGGCAGGCUUCGGUGGCGCGAUAGCGCCAACGUCCUCAACCUCCGAUGCAUCCCACAACAUGAUGAUGCCUAAAGAGCCUUGGUUUUUUG [A90G C102A G117A],-5.32
18,GACCAAUCUGCCCUCAGAGCUCGAGAACAUCUUCGGAUGCAGAGGAGGCAGGCUUCGGUGGCGCGAUAGCGCCAACGUCCUCAACCUCCCAUGCAUCCCACCACAUGAAGAUGCCUGUAGAGCCUUGGUUUUUUG [A90C U109A A118U],-5.95
19,GACCAAUCUGCCCUCAGAGCUCGAGAACAUCUUCGGAUGCAGAGGAGGCAGGCUUCGGUGGCGCGAUAGCGCCAACGUCCUCAACCUCCCAUGCAUCCCACCACAUGAUGAUGCCUGAAGAGCCUUGCUUUUUUG [A90C G128C],-3.68
20,GACCAAUCUGCCCUCAGAGCUCGAGAACAUCUUCGGAUGCAGAGGAGGCAGGCUUCGGUGGCGCGAUAGCGCCAACGUCCUCAACCUCUAAUGCAUCCCACCACAUAAUGAUGCCUGAAGAGCCUUGGUUUUUUG [C89U G107A],-5.32
21,GACCAAUCUGCCCUCAGAGCUCGAGAACAUCUUCGGAUGCAGAGGAGGCAGGCUUCGGUGGCGCGAUAGCGCCAACGUCCUCAACCUCCGAUGCAUUCCACCACCUGAUGAUGCCUGAAGAGCCUUGGUAUUUUG [A90G C97U A105C U130A],-3.67

row,Variant,polymerase ribozyme fitness (log ratio)
1,GACCAAUCUGCCCUCAGAGCUCGAGAACAUCUUCGGAUGCAGAGGAGGCAGGCUUCGGUGGCGCGAUAGCGCCAACGUCCUCAACCUCUAAUGCAUCCCACCACAUGAUGAUGCCUGAAGAGCCUUGGGUUUUUG [C89U U129G],-1.72
2,GACCAAUCUGCCCUCAGAGCUCGAGAACAUCUUCGGAUGCAGAGGAGGCAGGCUUCGGUGGCGCGAUAGCGCCAACGUCCUCAACCUCCGAUGCAUCCCACAACAUGAUGAUGCCUGAAGAGCCUUGGUUUUUUG [A90G C102A],-1.25
3,GACCAAUCUGCCCUCAGAGCUCGAGAACAUCUUCGGAUGCAGAGGAGGCAGGCUUCGGUGGCGCGAUAGCGCCAACGUCCUCAACCUCUAAUGCAUCCCACCACAUGAUGAUGCCUGAAAAGCCUUGGGUUUUUG [C89U G120A U129G],-1.07
4,GACCAAUCUGCCCUCAGAGCUCGAGAACAUCUUCGGAUGCAGAGGAGGCAGGCUUCGGUGGCGCGAUAGCGCCAACGUCCUCAACCUCCGAUGCAUCCCAGCACAUGAUGAUACCUCAAGAGCCUUGGUUUUUUG [A90G C101G G113A G117C],-5.96
5,GACCAAUCUGCCCUCAGAGCUCGAGAACAUCUUCGGAUGCAGAGGAGGCAGGCUUCGGUGGCGCGAUAGCGCCAACGUCCUCAACCUCCCAUGCAUCCCACCACAUGAUGAUGCCUGUAGAGCCUUGGUUUUUUG [A90C A118U],-0.0445
6,GACCAAUCUGCCCUCAGAGCUCGAGAACAUCUUCGGAUGCAGAGGAGGCAGGCUUCGGUGGCGCGAUAGCGCCAACGUCCUCAACCUCCCAUGCAUCCCACCACAUGAUGAUGCCUGCAGAGCCUUGGUUUUUUG [A90C A118C],-2.82
7,GACCAAUCUGCCCUCAGAGCUCGAGAACAUCUUCGGAUGCAGAGGAGGCAGGCUUCGGUGGCGCGAUAGCGCCAACGUCCUCAACCUCUAAUGCAUCCCACCACAUGAUGAUGCCUGAAGAGCCUUGGUUUUAUG [C89U U133A],-0.271
8,GACCAAUCUGCCCUCAGAGCUCGAGAACAUCUUCGGAUGCAGAGGAGGCAGGCUUCGGUGGCGCGAUAGCGCCAACGUCCUCAACCUCCGAUGUAUACCACCACAUGAUGAUGCCUGAAGAGCAUUGGUUUUUUG [A90G C94U C97A C124A],-0.528
9,GACCAAUCUGCCCUCAGAGCUCGAGAACAUCUUCGGAUGCAGAGGAGGCAGGCUUCGGUGGCGCGAUAGCGCCAACGUCCUCAACCUCCCAUGCAUCCCAGCACAUGAUGAUGCCUGAAGAGCCUUGGUUUUUUG [A90C C101G],-3.07
10,GACCAAUCUGCCCUCAGAGCUCGAGAACAUCUUCGGAUGCAGAGGAGGCAGGCUUCGGUGGCGCGAUAGCGCCAACGUCCUCAACCUCCCAUGCAUCCCACCACAUGAUGAUGACUGAAGAGCACUGGUUUUUUG [A90C C114A C124A U125C],0.0876
11,GACCAAUCUGCCCUCAGAGCUCGAGAACAUCUUCGGAUGCAGAGGAGGCAGGCUUCGGUGGCGCGAUAGCGCCAACGUCCUCAACCUCCCAUGCAUCCCACCACAUGAUGAUGCCUGAAGAGCCAUGGUUUUUUG [A90C U125A],-1.2
12,GACCAAUCUGCCCUCAGAGCUCGAGAACAUCUUCGGAUGCAGAGGAGGCAGGCUUCGGUGGCGCGAUAGCGCCAACGUCCUCAACCUCUAAUGCAUCCCACCACAUGAUGAUGCCUAAAGAGCCUUGGUUUUUUG [C89U G117A],-2.43
13,GACCAAUCUGCCCUCAGAGCUCGAGAACAUCUUCGGAUGCAGAGGAGGCAGGCUUCGGUGGCGCGAUAGCGCCAACGUCCUCAACCUCUAAUGCAUCCCACCACAUGAUGAAGCCUGAAGAGCCUUGGUUUUUUG [C89U U112A],-0.432
14,GACCAAUCUGCCCUCAGAGCUCGAGAACAUCUUCGGAUGCAGAGGAGGCAGGCUUCGGUGGCGCGAUAGCGCCAACGUCCUCAACCUCCCAUGCAUCCCACUACAUGAUGGUGCCUGAAGAGCCUUGGUUUUUUG [A90C C102U A111G],-4.24
15,GACCAAUCUGCCCUCAGAGCUCGAGAACAUCUUCGGAUGCAGAGGAGGCAGGCUUCGGUGGCGCGAUAGCGCCAACGUCCUCAACCUCUAAUGCAUCCCACCACAUGAUGAUGCCUGAAGAGCCUUGGUUUUUUU [C89U G135U],-0.983
16,GACCAAUCUGCCCUCAGAGCUCGAGAACAUCUUCGGAUGCAGAGGAGGCAGGCUUCGGUGGCGCGAUAGCGCCAACGUCCUCAACCUCCCAUGCAUCCCACCACACGAUGAUGCCGGAGGAGCCGUGGUUUUUUG [A90C U106C U116G A119G U125G],-1.75
17,GACCAAUCUGCCCUCAGAGCUCGAGAACAUCUUCGGAUGCAGAGGAGGCAGGCUUCGGUGGCGCGAUAGCGCCAACGUCCUCAACCUCCGAUGCAUCCCACCACAUGAUGAUGCCUGAAGCGCCUUGGUUUUUUG [A90G A121C],1.62
18,GACCAAUCUGCCCUCAGAGCUCGAGAACAUCUUCGGAUGCAGAGGAGGCAGGCUUCGGUGGCGCGAUAGCGCCAACGUCCUCAACCUCCGAUGCAUCCUACCACACGAUGAUGCCUGAAGAGCCUUGGUUUUUUG [A90G C99U U106C],-2.51
19,GACCAAUCUGCCCUCAGAGCUCGAGAACAUCUUCGGAUGCAGAGGAGGCAGGCUUCGGUGGCGCGAUAGCGCCAACGUCCUCAACCUCCGAUGCAUCCCACCACAUGAUGAUGCCAGAAGAGCCUUGGUUUUUUG [A90G U116A],-1.88
20,GACCAAUCUGCCCUCAGAGCUCGAGAACAUCUUCGGAUGCAGAGGAGGCAGGCUUCGGUGGCGCGAUAGCGCCAACGUCCUCAACCUCCGAUGCAUCCCACCUCAUGAUGAUGCCUGAGGAGCCUUGGUUUUUUG [A90G A103U A119G],-3.56
21,GACCAAUCUGCCCUCAGAGCUCGAGAACAUCUUCGGAUGCAGAGGAGGCAGGCUUCGGUGGCGCGAUAGCGCCAACGUCCUCAACCUCUAAUGCAUCCCACCACAUGAUGAUGCCUGAAGAGCCUUCGUUUUUUG [C89U G127C],-1.79
